Laboratory results reported in EP1878438A2.

How the values were obtained:
[1] = target: T1, GnRH receptor of rat pituitary membranes (rat) (UniProt P30969); test: radioligand displacement on rat pituitary membranes, equimolar concentrations
T1 sequence (looked up): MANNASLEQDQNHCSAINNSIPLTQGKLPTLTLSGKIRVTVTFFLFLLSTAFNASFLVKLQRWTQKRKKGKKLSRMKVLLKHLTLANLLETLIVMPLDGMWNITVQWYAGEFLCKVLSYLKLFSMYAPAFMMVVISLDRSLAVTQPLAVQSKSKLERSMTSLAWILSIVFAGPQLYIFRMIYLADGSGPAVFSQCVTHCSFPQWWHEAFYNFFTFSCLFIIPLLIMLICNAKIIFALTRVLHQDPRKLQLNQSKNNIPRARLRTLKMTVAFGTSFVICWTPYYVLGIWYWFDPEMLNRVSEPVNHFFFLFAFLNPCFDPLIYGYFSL

[2] = target: LH receptors on bovine granulosa cells and bovine small luteal cells (bovine) (UniProt Q28005); test: cell-based or functional assay
Chain of UniProt Q28005 (Q28005 27-701): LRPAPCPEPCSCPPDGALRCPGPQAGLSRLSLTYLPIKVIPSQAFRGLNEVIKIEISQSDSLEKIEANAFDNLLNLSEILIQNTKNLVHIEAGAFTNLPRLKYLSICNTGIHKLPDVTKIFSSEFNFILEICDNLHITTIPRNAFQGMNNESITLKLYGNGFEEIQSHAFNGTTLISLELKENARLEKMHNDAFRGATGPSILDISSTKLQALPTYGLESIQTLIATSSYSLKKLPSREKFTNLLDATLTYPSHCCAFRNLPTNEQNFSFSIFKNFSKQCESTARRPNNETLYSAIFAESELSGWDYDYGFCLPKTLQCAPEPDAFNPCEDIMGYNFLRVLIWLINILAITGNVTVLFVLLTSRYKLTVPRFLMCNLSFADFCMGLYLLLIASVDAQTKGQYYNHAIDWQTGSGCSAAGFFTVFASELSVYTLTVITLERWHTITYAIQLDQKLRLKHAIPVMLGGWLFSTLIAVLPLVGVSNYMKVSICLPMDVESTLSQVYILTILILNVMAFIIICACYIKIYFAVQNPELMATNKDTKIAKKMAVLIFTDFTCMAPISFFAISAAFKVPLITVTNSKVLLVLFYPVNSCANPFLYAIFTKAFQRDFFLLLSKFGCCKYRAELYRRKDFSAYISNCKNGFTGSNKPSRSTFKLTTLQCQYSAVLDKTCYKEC

Row | Substance | cpm displaced relative to native GnRH [1] [%] | cell killing of bovine small luteal cells after 22 hr (Trypan Blue exclusion) (fold vs hecate alone) [2]
1 | D-Lys6GnRH (peptide) | 187 | 
2 | hecate-bLH conjugate (peptide) |  | 2
